# Test results from PMC3877283, “Development of Novel Radiogallium-Labeled Bone Imaging Agents Using Oligo-Aspartic Acid Peptides as Carriers” (PLoS ONE, 2013).
# Where two headings read alike, the source gives them in different places. Peptide text beside a SMILES is read from it. * marks the point of attachment. DOTA = O=C(O)CN1CCN(CC(=O)O)CCN(CC(=O)*)CCN(CC(=O)O)CC1
# Assay: Biodistribution experiments in normal mice
# Type: in vivo, ddY mice
# Settings: for F/B ratio (Femur:blood ratio) / tissue uptake dose at 1 h / tissue uptake dose at 3 h / tissue uptake dose at 10 min: male ddY mice, no pretreatment, mean (SD) for four or five animals; for tissue uptake dose at 1 h / tissue uptake dose at 3 h / tissue uptake dose at 10 min: mouse, in vivo, iv, 37 kBq/100 uL, total radioactivity
# Experimental: Experiments with animals were conducted in strict accordance with the Guidelines for the Care and Use of Laboratory Animals of Kanazawa University. The animal experimental protocols used were approved by the Committee on Animal Experimentation of Kanazawa University (Permit Number: AP-132633). Biodistribution experiments were performed after an intravenous administration of each diluted tracer solution (37 kBq/100 µL) to 6-week-old male ddY mice (27–32 g, Japan SLC, Inc., Hamamatsu, Japan). To investigate the effect of an excess amount of bisphosphonate on biodistribution, alendronate (20 mg/kg) was intravenously administered to mice 1 minute before the intravenous injection of ^67Ga-DOTA-(Asp)14 or ^67Ga-DOTA-Bn-SCN-HBP. Four to six mice each were sacrificed by decapitation at 10, 60, and 180 minutes post-injection. Tissues of interest were removed and weighed. Complete left femurs were isolated as representative bone samples, radioactivity was determined using an auto well gamma counter, and counts were corrected for background radiation and physical decay during counting.
smiles,measurement,setting,value
"O=C(O)C[C@H](NC(=O)[C@H](CC(=O)O)NC(=O)[C@H](CC(=O)O)NC(=O)[C@H](CC(=O)O)NC(=O)[C@H](CC(=O)O)NC(=O)[C@H](CC(=O)O)NC(=O)[C@H](CC(=O)O)NC(=O)[C@H](CC(=O)O)NC(=O)[C@H](CC(=O)O)NC(=O)[C@H](CC(=O)O)NC(=O)[C@H](CC(=O)O)NC(=O)CN1CCN(CC(=O)O)CCN(CC(=O)O)CCN(CC(=O)O)CC1)C(=O)O [67Ga-DOTA-(Asp)11, metal not drawn] ({DOTA}-DDDDDDDDDDD-OH)",F/B ratio (Femur:blood ratio),10 min after i.v. administration,8.71 (0.73)
same,F/B ratio (Femur:blood ratio),60 min after i.v. administration,156.07 (45.00)
same,F/B ratio (Femur:blood ratio),180 min after i.v. administration,501.32 (156.89)
same,tissue uptake dose at 1 h,"male, ddY, Blood, 60 min after i.v. administration, read-out: Radioactivity in Blood",0.11 %ID
same,tissue uptake dose at 3 h,"male, ddY, Blood, 180 min after i.v. administration, read-out: Radioactivity in Blood",0.03 %ID
same,tissue uptake dose at 10 min,"male, ddY, Bone (complete left femur), 10 min after i.v. administration, read-out: Radioactivity in Bone (Femur)",13.1 %ID
same,tissue uptake dose at 1 h,"male, ddY, Bone (complete left femur), 60 min after i.v. administration, read-out: Radioactivity in Bone (Femur)",16.3 %ID
same,tissue uptake dose at 3 h,"male, ddY, Bone (complete left femur), 180 min after i.v. administration, read-out: Radioactivity in Bone (Femur)",13.9 %ID
same,tissue uptake dose at 10 min,"male, ddY, Brain, 10 min after i.v. administration, read-out: Radioactivity in Brain",0.05 %ID
same,tissue uptake dose at 1 h,"male, ddY, Brain, 60 min after i.v. administration, read-out: Radioactivity in Brain",0.02 %ID
same,tissue uptake dose at 3 h,"male, ddY, Brain, 180 min after i.v. administration, read-out: Radioactivity in Brain",0.01 %ID
same,tissue uptake dose at 10 min,"male, ddY, Heart, 10 min after i.v. administration, read-out: Radioactivity in Heart",0.55 %ID
same,tissue uptake dose at 1 h,"male, ddY, Heart, 60 min after i.v. administration, read-out: Radioactivity in Heart",0.08 %ID
same,tissue uptake dose at 3 h,"male, ddY, Heart, 180 min after i.v. administration, read-out: Radioactivity in Heart",0.02 %ID
same,tissue uptake dose at 10 min,"male, ddY, Kidney, 10 min after i.v. administration, read-out: Radioactivity in Kidney",16 %ID
same,tissue uptake dose at 1 h,"male, ddY, Kidney, 60 min after i.v. administration, read-out: Radioactivity in Kidney",1.76 %ID
same,tissue uptake dose at 3 h,"male, ddY, Kidney, 180 min after i.v. administration, read-out: Radioactivity in Kidney",0.8 %ID
same,tissue uptake dose at 10 min,"male, ddY, Large-intestine, 10 min after i.v. administration, read-out: Radioactivity in Large-intestine",0.27 %ID
same,tissue uptake dose at 1 h,"male, ddY, Large-intestine, 60 min after i.v. administration, read-out: Radioactivity in Large-intestine",0.06 %ID
same,tissue uptake dose at 3 h,"male, ddY, Large-intestine, 180 min after i.v. administration, read-out: Radioactivity in Large-intestine",0.13 %ID
same,tissue uptake dose at 10 min,"male, ddY, Liver, 10 min after i.v. administration, read-out: Radioactivity in Liver",0.44 %ID
same,tissue uptake dose at 1 h,"male, ddY, Liver, 60 min after i.v. administration, read-out: Radioactivity in Liver",0.07 %ID
same,tissue uptake dose at 3 h,"male, ddY, Liver, 180 min after i.v. administration, read-out: Radioactivity in Liver",0.05 %ID
same,tissue uptake dose at 10 min,"male, ddY, Lung, 10 min after i.v. administration, read-out: Radioactivity in Lung",1.11 %ID
same,tissue uptake dose at 1 h,"male, ddY, Lung, 60 min after i.v. administration, read-out: Radioactivity in Lung",0.12 %ID
same,tissue uptake dose at 3 h,"male, ddY, Lung, 180 min after i.v. administration, read-out: Radioactivity in Lung",0.04 %ID
same,tissue uptake dose at 10 min,"male, ddY, Muscle, 10 min after i.v. administration, read-out: Radioactivity in Muscle",0.48 %ID
same,tissue uptake dose at 1 h,"male, ddY, Muscle, 60 min after i.v. administration, read-out: Radioactivity in Muscle",0.13 %ID
same,tissue uptake dose at 3 h,"male, ddY, Muscle, 180 min after i.v. administration, read-out: Radioactivity in Muscle",0.08 %ID
same,tissue uptake dose at 10 min,"male, ddY, Pancreas, 10 min after i.v. administration, read-out: Radioactivity in Pancreas",0.62 %ID
same,tissue uptake dose at 1 h,"male, ddY, Pancreas, 60 min after i.v. administration, read-out: Radioactivity in Pancreas",0.07 %ID
same,tissue uptake dose at 3 h,"male, ddY, Pancreas, 180 min after i.v. administration, read-out: Radioactivity in Pancreas",0.05 %ID
same,tissue uptake dose at 10 min,"male, ddY, Small-intestine, 10 min after i.v. administration, read-out: Radioactivity in Small-intestine",0.41 %ID
same,tissue uptake dose at 1 h,"male, ddY, Small-intestine, 60 min after i.v. administration, read-out: Radioactivity in Small-intestine",0.27 %ID
same,tissue uptake dose at 3 h,"male, ddY, Small-intestine, 180 min after i.v. administration, read-out: Radioactivity in Small-intestine",0.05 %ID
same,tissue uptake dose at 10 min,"male, ddY, Spleen, 10 min after i.v. administration, read-out: Radioactivity in Spleen",0.31 %ID
same,tissue uptake dose at 1 h,"male, ddY, Spleen, 60 min after i.v. administration, read-out: Radioactivity in Spleen",0.09 %ID
same,tissue uptake dose at 3 h,"male, ddY, Spleen, 180 min after i.v. administration, read-out: Radioactivity in Spleen",0.04 %ID
same,tissue uptake dose at 10 min,"male, ddY, Stomach (footnote b), 10 min after i.v. administration, read-out: Radioactivity in Stomach",0.21 %ID
same,tissue uptake dose at 1 h,"male, ddY, Stomach (footnote b), 60 min after i.v. administration, read-out: Radioactivity in Stomach",0.18 %ID
same,tissue uptake dose at 3 h,"male, ddY, Stomach (footnote b), 180 min after i.v. administration, read-out: Radioactivity in Stomach",0.04 %ID
same,tissue uptake dose at 10 min,"Blood, 10 min after i.v. administration (37 kBq/100 µL), gamma counter, read-out: Radioactivity in Blood",1.51 %ID
same,accumulation of radioactivity in the femur (in words),"normal mice, i.v.",higher accumulation
